Measured values as given in publication doi:10.1101/216143.
pKd: −log10 of the molar value.

Molecular target: unmodified R1810 peptide of the RNAP2-CTD (human)
Test: MST

- pKd: 6.66
Substance: recombinant PADI2 (peptidyl arginine deiminase 2) (from UniProt Q9Y2J8 1-665) (enzyme)
